Experimental data: the Human Domainome abundance scans (Beltran et al. 2025)
± gives the uncertainty stated by the source.

B1: Tumor protein 63, residues 545 to 610; numbered along this chain, Q9H3D4 (parent)
chain: TDCSIVSFLARLGCSSCLDYFTTQGLTTIYQIEHYSMDDLASLKIPEQFRHAIWKGILDHRQLHEF

Variants of: B1
Experiment: abundance fitness (aPCA) (normalised: wild type 0, dead -1); higher = more abundant; growth selection in yeast, the domain comes from the species named
Conditions: Homo sapiens

Abundance fitness: each site, then its substitutions
S16: H -0.059 ± 0.036 | K -0.12 ± 0.03 | Y -0.156 ± 0.038 | E -0.033 ± 0.025 | W -0.165 ± 0.037 | C 0.016 ± 0.033 | R -0.092 ± 0.024 | T -0.073 ± 0.03 | G -0.023 ± 0.019 | A -0.037 ± 0.021 | F -0.106 ± 0.031 | D -0.012 ± 0.032 | P -0.006 ± 0.045 | I -0.089 ± 0.042
L26: G -0.935 ± 0.064 | R -0.436 ± 0.022 | F -0.106 ± 0.055 | I -0.014 ± 0.028 | N -0.414 ± 0.041 | A -0.271 ± 0.029 | C -0.174 ± 0.025 | V -0.054 ± 0.025 | Y -0.149 ± 0.05 | P -0.692 ± 0.065 | M -0.112 ± 0.032 | D -0.552 ± 0.054 | W -0.435 ± 0.03 | Q -0.345 ± 0.041 | T -0.272 ± 0.025 | H -0.225 ± 0.04
G25: N -0.048 ± 0.07 | M -0.362 ± 0.031 | H -0.099 ± 0.053 | A -0.118 ± 0.032 | P -0.885 ± 0.075 | V -0.866 ± 0.079 | S -0.062 ± 0.019 | C -0.143 ± 0.028 | F -0.549 ± 0.046 | T -0.401 ± 0.039 | W -0.733 ± 0.06 | E -0.067 ± 0.061 | L -0.582 ± 0.03 | I -1 ± 0.14 | R -0.093 ± 0.017 | Q -0.116 ± 0.049 | Y -0.349 ± 0.04
S15: T 0 ± 0.029 | L -0.061 ± 0.025 | N -0.034 ± 0.026 | W -0.179 ± 0.03 | R -0.052 ± 0.023 | K -0.037 ± 0.034 | I -0.042 ± 0.04 | Q 0.008 ± 0.033 | G -0.059 ± 0.029 | C -0.057 ± 0.037 | P -0.086 ± 0.031 | V -0.077 ± 0.031 | Y -0.096 ± 0.043 | E -0.067 ± 0.049 | D -0.064 ± 0.055 | H -0.031 ± 0.038 | F -0.157 ± 0.029 | A -0.046 ± 0.026 | M -0.076 ± 0.034
C17: R -0.838 ± 0.04 | M -0.025 ± 0.033 | Q -0.147 ± 0.035 | K -0.619 ± 0.043 | P -0.784 ± 0.078 | T -0.087 ± 0.024 | S -0.164 ± 0.018 | G -0.584 ± 0.036 | I -0.124 ± 0.032 | H -0.525 ± 0.049 | Y -0.323 ± 0.031 | E -0.377 ± 0.032 | N -0.359 ± 0.043 | F -0.299 ± 0.033 | V -0.077 ± 0.027 | D -1.05 ± 0.14 | L -0.085 ± 0.022
Q24: R -0.023 ± 0.017 | Y -0.121 ± 0.034 | C -0.048 ± 0.032 | A -0.025 ± 0.036 | V -0.04 ± 0.027 | L -0.081 ± 0.021 | S -0.037 ± 0.024 | D -0.152 ± 0.036 | H -0.015 ± 0.041 | T -0.062 ± 0.026 | F -0.12 ± 0.044 | M -0.067 ± 0.034 | N -0.089 ± 0.083 | W -0.138 ± 0.023 | K -0.018 ± 0.027 | I -0.073 ± 0.06 | G -0.081 ± 0.022 | E -0.039 ± 0.035 | P -0.21 ± 0.033
T22: D -0.039 ± 0.037 | P -0.78 ± 0.055 | H -0.04 ± 0.043 | L -0.021 ± 0.023 | A -0.023 ± 0.034 | Q -0.026 ± 0.039 | E -0.014 ± 0.032 | I -0.027 ± 0.027 | N -0.066 ± 0.046 | M -0.098 ± 0.039 | K -0.017 ± 0.028 | C -0.166 ± 0.054 | F -0.102 ± 0.051 | W -0.096 ± 0.027 | V -0.036 ± 0.023 | Y -0.177 ± 0.068 | G -0.1 ± 0.023
Y20: W -0.097 ± 0.033 | L -0.044 ± 0.028 | K -0.02 ± 0.024 | P -0.387 ± 0.037 | V -0.109 ± 0.024 | E -0.139 ± 0.03 | C -0.08 ± 0.056 | A -0.028 ± 0.021 | I -0.002 ± 0.039 | G -0.268 ± 0.022 | N -0.022 ± 0.033 | D -0.175 ± 0.038 | M -0.02 ± 0.027 | R -0.043 ± 0.022 | Q -0.09 ± 0.049
L18: C 0.007 ± 0.026 | S -0.018 ± 0.022 | A -0.008 ± 0.037 | V -0.013 ± 0.022 | Y -0.047 ± 0.025 | N -0.047 ± 0.029 | P -0.551 ± 0.034 | G -0.08 ± 0.031 | I -0.036 ± 0.029 | D -0.09 ± 0.036 | Q -0.002 ± 0.063 | W -0.203 ± 0.08 | F -0.16 ± 0.031 | T -0.008 ± 0.022 | K 0.061 ± 0.12 | R -0.072 ± 0.027 | M -0.008 ± 0.044 | H -0.126 ± 0.023 | E -0.014 ± 0.066
D19: R -0.019 ± 0.023 | G -0.032 ± 0.031 | N 0.004 ± 0.051 | A -0.05 ± 0.027 | M -0.086 ± 0.034 | Y -0.103 ± 0.024 | F -0.09 ± 0.031 | L -0.089 ± 0.019 | T -0.002 ± 0.035 | W -0.058 ± 0.03 | V -0.081 ± 0.029 | C -0.079 ± 0.044 | P 0.004 ± 0.026 | I -0.067 ± 0.036 | Q -0.087 ± 0.056 | E -0.015 ± 0.036 | K -0.024 ± 0.031
L12: E -0.285 ± 0.038 | N -0.107 ± 0.033 | S -0.119 ± 0.028 | G -0.648 ± 0.032 | I 0.021 ± 0.036 | P -0.726 ± 0.056 | M -0.05 ± 0.034 | W -0.072 ± 0.037 | V -0.047 ± 0.024 | T -0.06 ± 0.037 | D -0.836 ± 0.078 | R -0.112 ± 0.024 | Y -0.048 ± 0.034 | Q -0.074 ± 0.036 | C -0.087 ± 0.034 | K -0.146 ± 0.048 | F -0.149 ± 0.048 | A -0.068 ± 0.027 | H -0.099 ± 0.042
C14: L 0.023 ± 0.023 | T -0.143 ± 0.037 | H -0.12 ± 0.035 | S -0.128 ± 0.023 | N -0.34 ± 0.037 | E -0.42 ± 0.029 | P -0.889 ± 0.098 | I -0.068 ± 0.039 | V -0.027 ± 0.022 | M -0.014 ± 0.067 | Y -0.076 ± 0.049 | W -0.61 ± 0.043 | K -0.125 ± 0.03 | R -0.222 ± 0.024 | F -0.111 ± 0.059
T27: A -0.105 ± 0.023 | E -0.04 ± 0.029 | C -0.133 ± 0.037 | D -0.057 ± 0.029 | F -0.063 ± 0.035 | H -0.005 ± 0.061 | G -0.123 ± 0.018
G13: W -0.829 ± 0.063 | A -0.117 ± 0.037 | F -0.45 ± 0.05 | N -0.013 ± 0.058 | S -0.076 ± 0.027 | Y -0.298 ± 0.057 | M -0.178 ± 0.036 | Q -0.04 ± 0.094 | V -0.804 ± 0.042 | E -0.071 ± 0.04 | R -0.077 ± 0.024 | L -0.438 ± 0.029 | P -0.935 ± 0.13 | T -0.188 ± 0.073 | H -0.174 ± 0.095 | I -0.814 ± 0.41 | D 0.004 ± 0.047
S7: T -0.012 ± 0.031 | Q -0.067 ± 0.031 | Y -0.053 ± 0.041 | W -0.132 ± 0.027 | R -0.086 ± 0.02
A10: Y -0.164 ± 0.029 | H -0.16 ± 0.053 | G -0.1 ± 0.035 | Q -0.15 ± 0.27 | C -0.214 ± 0.029 | I -0.203 ± 0.027 | W -0.18 ± 0.054 | S -0.104 ± 0.025 | V -0.15 ± 0.039 | N -0.146 ± 0.054 | L -0.063 ± 0.037 | T -0.134 ± 0.065 | E -0.003 ± 0.061 | K -0.092 ± 0.1 | F -0.167 ± 0.028 | D -0.145 ± 0.033
F8: N -0.796 ± 0.069 | W -0.024 ± 0.041 | A -0.58 ± 0.034 | M -0.029 ± 0.027 | H -0.41 ± 0.14 | G -1.01 ± 0.084 | E -0.711 ± 0.056 | Y -0.329 ± 0.048 | P -0.938 ± 0.091 | S -0.822 ± 0.044 | I -0.272 ± 0.019 | Q -0.835 ± 0.064 | L -0.052 ± 0.022 | K -0.961 ± 0.19 | R -0.918 ± 0.079 | C -0.583 ± 0.12 | T -0.592 ± 0.05
R11: H -0.127 ± 0.051 | Q -0.08 ± 0.029 | G -0.071 ± 0.022 | I -0.126 ± 0.043 | P -0.133 ± 0.024 | M -0.111 ± 0.028 | D -0.09 ± 0.029 | T -0.023 ± 0.03 | Y -0.221 ± 0.05 | N -0.093 ± 0.037 | V -0.171 ± 0.025 | K -0.02 ± 0.037 | C -0.155 ± 0.035 | F -0.268 ± 0.039 | E -0.038 ± 0.026
T23: E -0.02 ± 0.033 | V -0.044 ± 0.024 | P -0.093 ± 0.032 | S -0.037 ± 0.023 | M -0.01 ± 0.033 | H 0.076 ± 0.069 | Y -0.096 ± 0.035 | W -0.105 ± 0.036 | I -0.072 ± 0.034 | D -0.027 ± 0.032 | A -0.023 ± 0.028 | G -0.004 ± 0.021 | N 0.002 ± 0.041 | Q 0 ± 0.036 | C -0.037 ± 0.058 | L -0.03 ± 0.023 | R -0.02 ± 0.022 | K -0.008 ± 0.032
F21: Q -0.965 ± 0.095 | H -0.975 ± 0.18 | T -1.13 ± 0.13 | W -1.04 ± 0.11 | S -0.773 ± 0.05 | Y -0.85 ± 0.091 | E -0.983 ± 0.12 | L -0.56 ± 0.028 | R -0.964 ± 0.058 | D -1.03 ± 0.12 | G -0.986 ± 0.061 | A -1.02 ± 0.082 | C -1.01 ± 0.11 | V -1 ± 0.061 | K -1.15 ± 0.16 | N -0.962 ± 0.1 | I -0.737 ± 0.095
L9: H -1.02 ± 0.37 | F -0.626 ± 0.07 | Y -0.783 ± 0.12 | S -0.869 ± 0.043 | C -0.344 ± 0.06 | I -0.421 ± 0.059 | A -1 ± 0.093 | N -0.814 ± 0.14 | E -0.666 ± 0.054 | Q -1.03 ± 0.11 | W -0.955 ± 0.041 | K -1 ± 0.09 | D -0.474 ± 0.15 | G -0.622 ± 0.039 | P -0.928 ± 0.14 | T -1.04 ± 0.1 | M -0.272 ± 0.036 | R -0.83 ± 0.039
